Assay results taken from publication PMC3741163.

Biological target: CCR3 (UniProt P51677)
Sequence (P51677 whole entry): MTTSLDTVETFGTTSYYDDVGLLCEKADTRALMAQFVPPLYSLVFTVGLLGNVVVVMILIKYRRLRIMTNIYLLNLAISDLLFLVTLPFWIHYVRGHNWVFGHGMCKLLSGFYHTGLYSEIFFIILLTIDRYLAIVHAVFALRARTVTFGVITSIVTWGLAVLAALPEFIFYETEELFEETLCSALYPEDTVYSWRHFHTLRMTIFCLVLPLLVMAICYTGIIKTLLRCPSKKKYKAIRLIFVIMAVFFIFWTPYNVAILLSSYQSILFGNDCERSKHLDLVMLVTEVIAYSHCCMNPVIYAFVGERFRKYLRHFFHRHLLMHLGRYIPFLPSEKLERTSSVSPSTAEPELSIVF

B1: CCL18-6His (ligand)
chain: AQVGTNKELCCLVYTSWQIPQKFIVDYSETSPQCPKPGVILLTKRGRQICADPNKKWVQKYISDLKLNA
- IC50 for inhibition of migration of L1.2/CCR3 transfectants to 1 nM CCL11: 168 nM
